{
  "source": "patent US20200088729",
  "assay_in_all_cases": "SPR",
  "key": {"[1]": {"biological_target": "PTBP1 (UniProt P26599)", "sequence (P26599 whole entry)": "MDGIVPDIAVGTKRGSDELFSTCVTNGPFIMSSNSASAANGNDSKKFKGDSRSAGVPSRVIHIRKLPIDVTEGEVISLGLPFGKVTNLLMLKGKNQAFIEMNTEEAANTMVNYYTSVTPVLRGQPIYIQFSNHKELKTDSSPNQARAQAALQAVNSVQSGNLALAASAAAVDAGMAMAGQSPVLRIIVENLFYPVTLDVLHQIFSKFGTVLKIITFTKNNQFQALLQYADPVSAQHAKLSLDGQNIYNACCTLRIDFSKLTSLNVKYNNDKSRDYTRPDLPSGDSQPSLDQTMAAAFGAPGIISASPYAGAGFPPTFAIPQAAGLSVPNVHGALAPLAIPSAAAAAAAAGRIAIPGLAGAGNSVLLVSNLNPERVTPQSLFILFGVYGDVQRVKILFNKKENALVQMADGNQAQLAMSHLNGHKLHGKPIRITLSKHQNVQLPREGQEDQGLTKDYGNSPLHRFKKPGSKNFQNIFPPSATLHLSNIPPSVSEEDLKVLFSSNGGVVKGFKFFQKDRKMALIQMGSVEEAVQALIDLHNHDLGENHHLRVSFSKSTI", "details": "HBS-EP+, 3.25 mM MgCl2, 25 C"}, "[2]": {"biological_target": "EZH2 (UniProt Q15910)", "sequence (Q15910 whole entry)": "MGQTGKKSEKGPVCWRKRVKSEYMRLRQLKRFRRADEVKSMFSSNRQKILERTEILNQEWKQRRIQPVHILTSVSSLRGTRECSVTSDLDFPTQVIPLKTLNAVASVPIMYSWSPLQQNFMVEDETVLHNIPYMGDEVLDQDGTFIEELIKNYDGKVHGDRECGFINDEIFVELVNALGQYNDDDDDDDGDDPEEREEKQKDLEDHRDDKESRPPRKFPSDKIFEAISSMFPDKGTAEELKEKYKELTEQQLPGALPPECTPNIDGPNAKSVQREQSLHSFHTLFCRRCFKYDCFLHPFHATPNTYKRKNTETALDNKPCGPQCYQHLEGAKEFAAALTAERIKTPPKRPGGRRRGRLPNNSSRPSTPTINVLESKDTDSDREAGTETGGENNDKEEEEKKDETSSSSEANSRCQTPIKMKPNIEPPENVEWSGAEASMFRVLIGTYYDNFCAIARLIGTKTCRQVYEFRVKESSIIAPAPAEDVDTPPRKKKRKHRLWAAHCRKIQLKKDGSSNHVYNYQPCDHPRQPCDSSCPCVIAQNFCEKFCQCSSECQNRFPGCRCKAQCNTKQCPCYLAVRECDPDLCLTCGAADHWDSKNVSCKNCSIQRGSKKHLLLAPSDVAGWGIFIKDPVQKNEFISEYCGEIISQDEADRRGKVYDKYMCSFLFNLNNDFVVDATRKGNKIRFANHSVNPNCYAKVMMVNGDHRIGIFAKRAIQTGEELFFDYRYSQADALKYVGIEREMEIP", "details": "HBS-EP+, 3.25 mM MgCl2, 25 C"}, "[3]": {"biological_target": "SUZ12 (UniProt Q15022)", "sequence (Q15022 whole entry)": "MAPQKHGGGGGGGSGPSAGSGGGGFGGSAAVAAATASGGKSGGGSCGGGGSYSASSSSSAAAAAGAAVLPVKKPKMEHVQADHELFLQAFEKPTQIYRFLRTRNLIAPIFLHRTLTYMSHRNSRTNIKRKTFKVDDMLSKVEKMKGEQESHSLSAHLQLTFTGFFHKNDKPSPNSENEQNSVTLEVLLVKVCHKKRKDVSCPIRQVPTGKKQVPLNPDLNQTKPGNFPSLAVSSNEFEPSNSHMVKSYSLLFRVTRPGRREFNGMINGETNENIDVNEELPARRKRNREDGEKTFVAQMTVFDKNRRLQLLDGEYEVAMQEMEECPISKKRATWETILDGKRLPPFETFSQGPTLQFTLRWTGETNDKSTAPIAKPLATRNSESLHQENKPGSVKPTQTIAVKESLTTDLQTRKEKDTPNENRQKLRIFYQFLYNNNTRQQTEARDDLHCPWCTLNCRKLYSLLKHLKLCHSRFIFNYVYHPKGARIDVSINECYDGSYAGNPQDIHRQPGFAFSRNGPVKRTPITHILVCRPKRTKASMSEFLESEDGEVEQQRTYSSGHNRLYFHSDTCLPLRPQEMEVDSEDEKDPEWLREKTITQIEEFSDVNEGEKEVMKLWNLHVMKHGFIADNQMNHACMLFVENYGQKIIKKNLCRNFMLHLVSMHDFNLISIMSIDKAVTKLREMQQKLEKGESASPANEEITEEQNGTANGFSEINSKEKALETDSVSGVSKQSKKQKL", "details": "HBS-EP+, 3.25 mM MgCl2, 25 C"}, "[4]": {"biological_target": "EED (UniProt O75530)", "sequence (O75530 whole entry)": "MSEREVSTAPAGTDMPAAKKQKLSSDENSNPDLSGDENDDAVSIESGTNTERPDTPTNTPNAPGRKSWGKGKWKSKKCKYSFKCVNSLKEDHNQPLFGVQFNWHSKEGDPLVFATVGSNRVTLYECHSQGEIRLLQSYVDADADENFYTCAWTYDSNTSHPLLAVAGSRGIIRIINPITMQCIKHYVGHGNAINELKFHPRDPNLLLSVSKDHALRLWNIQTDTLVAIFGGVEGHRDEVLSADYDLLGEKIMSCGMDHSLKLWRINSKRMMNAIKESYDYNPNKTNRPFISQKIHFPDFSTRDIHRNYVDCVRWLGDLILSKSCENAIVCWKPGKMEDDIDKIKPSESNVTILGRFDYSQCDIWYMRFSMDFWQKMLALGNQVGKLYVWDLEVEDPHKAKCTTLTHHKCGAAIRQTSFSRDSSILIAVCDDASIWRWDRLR", "details": "HBS-EP+, 3.25 mM MgCl2, 25 C"}, "[5]": {"biological_target": "T1, HaloTag-DasherGFP-3xLambdaN-V5 (synthetic construct (lambda phage N peptide)) (UniProt P03045)", "T1 sequence": "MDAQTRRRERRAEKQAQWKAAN", "details": "ka 29700 1/Ms, kd 0.0012 1/s; HBS-EP+, 3.25 mM MgCl2, 25 C"}},
  "note": "pKd: −log10 of the molar value.",
  "data": [
    {"substance": "MBP-5xBoxB RNA", "values": [
      {"measurement": "pKd", "setting": "[1]", "result": 6.98},
      {"measurement": "pKd", "setting": "[2]", "result": 4.18},
      {"measurement": "pKd", "setting": "[3]", "result": 4.02},
      {"measurement": "pKd", "setting": "[4]; U-value 20", "result": 5.53},
      {"measurement": "pKd", "setting": "[5]", "result": 7.41}
    ]},
    {"substance": "MBP RNA (nt 1-240)", "values": [
      {"measurement": "pKd", "setting": "[1]; U-value 20", "result": 5.06},
      {"measurement": "pKd", "setting": "[2]", "result": 4.24},
      {"measurement": "pKd", "setting": "[3]", "result": 5.87},
      {"measurement": "pKd", "setting": "[4]", "result": 5.79}
    ]},
    {"substance": "Xist E-repeat RNA", "values": [
      {"measurement": "pKd", "setting": "[1]", "result": 7.22},
      {"measurement": "pKd", "setting": "[2]; U-value 20", "result": 4.88},
      {"measurement": "pKd", "setting": "[3]", "result": 4.22},
      {"measurement": "pKd", "setting": "[4]", "result": 5.96}
    ]},
    {"substance": "Xist A-repeat RNA", "values": [
      {"measurement": "pKd", "setting": "[1]", "result": 6.58},
      {"measurement": "pKd", "setting": "[2]", "result": 4.25},
      {"measurement": "pKd", "setting": "[3]; U-value 26 flagged with asterisk (poor fit)", "result": 5.75},
      {"measurement": "pKd", "setting": "[4]", "result": 6.59}
    ]}
  ]
}
